Reference: patent US20210371480
Substitutions are numbered along the chain they refer to.

Key:
[1] = biological target: C3b (Complement Technology cat. A114), purified human C3b (UniProt P01024)
[2] = biological target: C3b (Complement Technology cat. A114), purified human C3b, P01024
C3b (Complement Technology cat. A114), purified human C3b, P01024, sequence (P01024 whole entry, looked up): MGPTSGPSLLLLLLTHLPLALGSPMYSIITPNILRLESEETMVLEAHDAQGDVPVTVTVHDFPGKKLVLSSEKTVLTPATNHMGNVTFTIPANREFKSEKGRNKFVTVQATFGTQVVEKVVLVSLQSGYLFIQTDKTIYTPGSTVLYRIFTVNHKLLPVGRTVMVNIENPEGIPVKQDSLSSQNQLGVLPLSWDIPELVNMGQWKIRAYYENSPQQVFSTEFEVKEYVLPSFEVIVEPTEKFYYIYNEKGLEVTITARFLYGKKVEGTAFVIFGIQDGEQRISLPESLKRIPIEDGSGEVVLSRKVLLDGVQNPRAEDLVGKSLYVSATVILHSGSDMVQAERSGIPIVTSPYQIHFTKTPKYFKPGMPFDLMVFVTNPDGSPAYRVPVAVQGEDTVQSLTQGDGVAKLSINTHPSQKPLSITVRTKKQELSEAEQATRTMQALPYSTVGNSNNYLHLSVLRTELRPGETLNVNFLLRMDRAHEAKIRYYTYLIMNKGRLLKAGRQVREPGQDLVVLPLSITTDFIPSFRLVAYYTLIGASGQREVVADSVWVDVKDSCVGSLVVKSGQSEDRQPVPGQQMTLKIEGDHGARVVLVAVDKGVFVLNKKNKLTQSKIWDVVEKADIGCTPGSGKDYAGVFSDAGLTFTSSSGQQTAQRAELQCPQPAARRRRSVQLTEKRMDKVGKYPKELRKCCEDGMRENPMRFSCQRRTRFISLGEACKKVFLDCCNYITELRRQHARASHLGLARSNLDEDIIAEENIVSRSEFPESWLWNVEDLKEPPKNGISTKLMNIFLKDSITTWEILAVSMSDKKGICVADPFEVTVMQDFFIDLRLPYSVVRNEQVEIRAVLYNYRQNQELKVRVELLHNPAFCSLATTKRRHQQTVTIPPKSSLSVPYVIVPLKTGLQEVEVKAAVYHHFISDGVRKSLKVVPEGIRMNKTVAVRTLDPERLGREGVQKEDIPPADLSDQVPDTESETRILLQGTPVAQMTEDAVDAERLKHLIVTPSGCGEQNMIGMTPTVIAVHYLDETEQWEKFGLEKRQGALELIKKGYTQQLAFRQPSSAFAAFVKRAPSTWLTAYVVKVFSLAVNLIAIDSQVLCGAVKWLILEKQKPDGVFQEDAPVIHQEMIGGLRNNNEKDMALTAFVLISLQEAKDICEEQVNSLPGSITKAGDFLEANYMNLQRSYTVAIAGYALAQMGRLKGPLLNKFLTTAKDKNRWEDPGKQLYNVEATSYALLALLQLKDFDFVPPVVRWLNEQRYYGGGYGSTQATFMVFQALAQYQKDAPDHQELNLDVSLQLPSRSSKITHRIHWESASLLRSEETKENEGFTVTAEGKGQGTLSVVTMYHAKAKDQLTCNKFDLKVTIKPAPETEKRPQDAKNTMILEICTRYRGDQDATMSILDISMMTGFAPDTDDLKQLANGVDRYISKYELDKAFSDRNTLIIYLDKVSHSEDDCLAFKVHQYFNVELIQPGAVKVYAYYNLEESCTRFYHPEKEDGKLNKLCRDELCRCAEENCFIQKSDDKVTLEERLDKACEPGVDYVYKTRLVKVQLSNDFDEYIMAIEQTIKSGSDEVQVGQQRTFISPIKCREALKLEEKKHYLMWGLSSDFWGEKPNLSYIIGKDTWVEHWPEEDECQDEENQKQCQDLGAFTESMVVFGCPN

With “A300T CFI protein (Complement Factor I mutant variant)” the “fluorescence cofactor assay: change in RFUs of ANS-labeled C3b over time, with cofactor CFH, MCP or CR1” value (from here on “fluorescence cofactor assay: change”) [1] was “the A300T mutation appeared to have relatively little impact on CFI function”.

“P553S CFI protein (Complement Factor I mutant variant)” was tested, and the “fluorescence cofactor assay: change” value [1] was “certain CFI mutations (G119R, A240G, and P553S) were associated with greatly reduced CFI protein function”.

With “G119R CFI protein (Complement Factor I mutant variant)” the “fluorescence cofactor assay: change” value [1] was “certain CFI mutations (G119R, A240G, and P553S) were associated with greatly reduced CFI protein function”.

With “A240G CFI protein (Complement Factor I mutant variant)” the “fluorescence cofactor assay: change” value [1] was “certain CFI mutations (G119R, A240G, and P553S) were associated with greatly reduced CFI protein function”.

B1: purified CFI (Comptech cat. A138) (protein)
chain: KVTYTSQEDLVEKKCLAKKYTHLSCDKVFCQPWQRCIEGTCVCKLPYQCPKNGTAVCATNRRSFPTYCQQKSLECLHPGTKFLNNGTCTAEGKFSVSLKHGNTDSEGIVEVKLVDQDKTMFICKSSWSMREANVACLDLGFQQGADTQRRFKLSDLSINSTECLHVHCRGLETSLAECTFTKRRTMGYQDFADVVCYTQKADSPMDDFFQCVNGKYISQMKACDGINDCGDQSDELCCKACQGKGFHCKSGVCIPSQYQCNGEVDCITGEDEVGCAGFASVTQEETEILTADMDAERRRIKSLLPKLSCGVKNRMHIRRKRIVGGKRAQLGDLPWQVAIKDASGITCGGIYIGGCWILTAAHCLRASKTHRYQIWTTVVDWIHPDLKRIVIEYVDRIIFHENYNAGTYQNDIALIEMKKDGNKKDCELPRSIPACVPWSPYLFQPNDTCIVSGWGREKDNERVFSLQWGEVKLISNCSKFYGNRFYEKEMECAGTYDGSIDACKGDSGGPLVCMDANNVTYVWGVVSWGENCGKPEFPGVYTKVANYFDWISYHVGRPFISQYNV
B1 was tested, and the “slope of the co-factor assay (fluorescence of C3b/ANS with CFH, kinetic mode)” value [2] was “the slope of the CFI control sample is -0.75±0.02”.

B2: CFI expressed in eyes of cynomolgus monkeys from AAV2-GP2031 (vector SEQ ID NO: 33) (protein)
chain: B1 chain with T282A
For B2, the “fluorescence cofactor assay with CFH: reduction in fluorescence at 472 nm of C3b/ANS mixed with vitreous humor” value [2] was “CFI expressed in eyes of cynomolgus monkeys was capable of cleaving C3b in a dose-dependent manner”.
